# Reference: the nanobody polyreactivity screen of Harvey et al. (2022)
# Assay: yeast display, Sf9 membrane polyspecificity reagent, FACS + sequencing; frameworks hold sequencing errors
# Summary of the method: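 Genes from sorted yeast were amplified by colony PCR, read by MiSeq 2 × 250 sequencing and filtered on CDR length. These cells carried a synthetic nanobody library in Saccharomyces cerevisiae BJ5465 and were sorted by FACS into low and high (top ~1%) gates on anti-HA and streptavidin fluorescence. Polyreactivity is labelled according to the gate of origin.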
row,Sequence,polyreactivity (PSR sort gate)
1,QVQLVESGGGLVQAGGSLRLSCAASGSIFYWNAMGWYRQAPGKEREFVADISQSGDSTYYADSVKGRFTISRDNAKNTVYLQMNSLKPEDTAVYYCAAQFLSYAWDYDYWGQGTQVTVSS,low polyreactivity
2,QVQLVESGGGLVQAGGSLRLSCAASGSIFYWYAMGWYRPAPGKERELVAAISYSGGSTYADSVKGRFTISRDNAKNTVYLQMNSLKPEDTAVYYCAVGYYRFGRFLGYYWGQGTQVTVSS,high polyreactivity
3,QVQLVESGGGLVQAGGSLRLSCAASGSIFYWYAMGWYRQAPGKEREFVAGITGRGGSTYYADSVKGRFTISRDNAKNTVYLQMNSLKPEDTAVYYADFVKYGKYYQRYDYWGQGTQVTVSS,high polyreactivity
4,QVQLVESGGGLVQAGGSLRLSCAASGSIFYWYAMGWYRQAPGKERELVAAITWSGGSTYYADSVKGRFTISRDNAKNTVYLQMNSLKPEDTAVYYCNKVPYYGAYSSYDYWGQGTQVTVSS,high polyreactivity
5,QVQLVESGGGLVQAGGSLRLSCAASGSIFYWYAMGWYRQAPGKERELVASIRWSGGTYYADSVKGRFTISRDNAKNTVYLQMNSLKPEDTAVYYCNKGGGRGHFEYWGQGTQVTVSS,low polyreactivity
6,QVQLVESGGGLVQAGGSLRLSCAASGSIFYWYAMGWYRQARGKERELVAGITYSGGNTYYADSVKGRFTISRDNAKNTVYLQMNSLKPEDTAVYYCAATRGYWRKWRMDYWGQGTQVTVSS,high polyreactivity
7,QVQLVESGGGLVQAGGSLRLSCAASGSIFYWYDMGWYRQAPGKERELVAAITNDGDSTYYADSVKGRFTISRDNAKNTVYLQMNSLKPEDTAVYYCAADVLFYYEYGSWGQGTQVTVSS,low polyreactivity
8,QVQLVESGGGLVQAGGSLRLSCAASGSIFYYNAMGWYRQAPGKERELVAAIRRSGGRTYYADSVKGRFTISRDNAKNTVYLQMNSLKPEDTAVYYCAAVHYDRVTGQVDHDYWGQGTQVTVSS,high polyreactivity
9,QVQLVESGGGLVQAGGSLRLSCAASGSIFYYNAMGWYRQAPGKERELVAAISWSGDSTYYADSVKGRFTISRDNAKNTVYLQMNSLKPEDTAVYYCNTDLVPWTEYWYDYWGQGTQVTVSS,low polyreactivity
10,QVQLVESGGGLVQAGGSLRLSCAASGSIFYYNAMGWYRQAPGKERELVAAITRSGGRTYYADSVKGRFTISRDNAKTTVYLQMNSLKPEDTAVYSCAARSAGPVTTLKYYYWGHGTQVTVSS,high polyreactivity
11,QVQLVESGGGLVQAGGSLRLSCAASGSIFYYNAMGWYRQAPGKERELVATIRTSGGSTYYADSVKGRFTISRDNAKNTVYLQMNSLKPVDTAVYYCAARDLRKLYSRYPYYYWGQGTQVTVSS,high polyreactivity
12,QVQLVESGGGLVQAGGSLRLSCAASGSIFYYNAMGWYRQEPGKERELVATITSAVSTNYADSVKGRFTISRDNAKNTVYLQMNSLKPEDTAVYYCATVYSLSFELDYWGQGTQVTVSS,low polyreactivity
13,QVQLVESGGGLVQAGGSLRLSCAASGSIFYYNVMGWYRQAPGKERELVAAIDIDGSTYYADSVKGRFTISRDNAKNTVYLQMNSLKPEDTAVYYCNAQAPYWFSFYSDHKYDYWGQGTQVTVSS,low polyreactivity
14,QVQLVESGGGLVQAGGSLRLSCAASGSIFYYYAMGRYRQAPGKERELVAAISSGGDTHYADSVKGRFTISRDNAKNTVYLQMNSLKPEDTAVFYCAAQRRYHQDTTIGPGNYYYWGQGTQVTVSS,low polyreactivity
15,QVQLVESGGGLVQAGGSLRLSCAASGSIFYYYAMGWYRQAPGKEREFVAAITKRADRTYYADSVKGRFTISRDNAKNTVYLQMNSLKPEDTAVYYCNADFVWRNGYLGFYRYDYWGQGTQVTVSS,low polyreactivity
16,QVQLVESGGGLVQAGGSLRLSCAASGSIFYYYAMGWYRQAPGKERELVAAISRNGGSTSYADSVKGRFTISRDNAKNTVYLQMNSLKPEDTAVYYCNTYGGYKYDYWGQGTQVTVSS,low polyreactivity
17,QVQLVESGGGLVQAGGSLRLSCAASGSIFYYYAMGWYRQAPGKERELVAAISWCGGSTYYADSVKGRFTISRDNAKNTVYLQMNSLKPEDTAVYYCAAQRRYGDDYWGQGTQVTVSS,high polyreactivity
18,QVQLVESGGGLVQAGGSLRLSCAASGSIFYYYAMGWYRQAPGKERELVADISISGGSTYYADSVKGRFTISRDNAKNTVYLQMNSLKPEDTAVYYCAATDYLWEPTVSNWGYTFDSWGQGTQVTVSS,low polyreactivity
19,QVQLVESGGGLVQAGGSLRLSCAASGSIFYYYVMGWYRQAPGKEREFVAAISWGGDSTYYADSVKGRFTISRDNAKNTVYLQMNSLKPEDTAVYYCAAVRYNSRVSTTPSEMYYWGQGTQVTVSS,low polyreactivity
20,QVQLVESGGGLVQAGGSLRLSCAASGSIFYYYVMGWYRQAPGKERELVAAISSGGGTNYADSVKGRFTISRDNAKNTVYLQLNRLKPEDTAVYYCAKASAYGLANDYDYWGQGTLVTVSS,low polyreactivity
21,QVQLVESGGGLVQAGGSLRLSCAASGSIGYYVMGWYRQAPGKERELVAVITFGGASTYYADSVKGRFTISRDNAKNTVYLQMNSLKPEDTAVYYCARYQHRLVYGYGYWGQGTQVTVSS,low polyreactivity
22,QVQLVESGGGLVQAGGSLRLSCAASGSIIARYAMGWYRQAPGKETELVAAINSGTSTNYADSVKGRFTISRDNAKNTVYFQMHCLKPEDTEVYYCNTQWYVDNDTYTQTDYDYWGQGTQVTVSS,low polyreactivity
